# Molecular target: Recombinant wild-type human histone H1.0 (human)
# Assay: turbidity
binder,measurement,value
"ProTα (unlabelled) (natural protein, human) GPMSDAAVDTSSEITTKDLKEKKEVVEEAENGRDAPANGNANEENGEQEADNEVDEEEEEGGEEEEEEEEGDGEEEDGDEDEEAESATGKRAAEDDEDDDVDTKKQKTDEDD",ProTα:H1 ratio at maximum phase separation,1.2 ProTα:H1

# — article PMC11508043 (Nature, 2023)
